Measurements reported in PMC12687561 (2025).

T1: HHV-6B Putative OX-2 membrane glycoprotein homolog (U85) peptide on HLA-DRA*01:01 / HLA-DRB1*03:01 (human)
T1 peptide: KINNLDVDSKLYFHIKH

T2: HHV-6B Large structural phosphoprotein (U11) peptide on HLA-DRA*01:01 / HLA-DRB1*03:01 (human)
T2 peptide: SLPSISIDTKRPSADL

B1: U85.2 (TCR)
alpha TRAV13-1 TRAJ29 CDR3: CAATNSGNTPLVF
beta TRBV20-1 TRBJ1-5 CDR3: CSARRGGGPQHF
B2: U11.1 (TCR)
alpha TRAV12-1 TRAJ49 CDR3: CVVNIFTGNQFYF
beta TRBV19 TRBJ1-4 CDR3: CASSFRGGEKLFF
B3: U85.1 (TCR)
alpha TRAV13-1 TRAJ29 CDR3: CAASNSGNTPLVF
beta TRBV20-1 TRBJ1-6 CDR3: CGNRVGNSPLHF

How the values were obtained:
[1] = target: T1, HHV-6B Putative OX-2 membrane …; test: multimer staining
[2] = target: T2, HHV-6B Large structural phosphoprotein …; test: multimer staining

Binder | binding result [1] | binding result [2]
B1 | recognises | 
B2 |  | recognises
B3 | recognises | 
